Here are results for one substance from publication PMC5952157.

The assay concerns the target V5-HAX-1 (HCLS1-associated protein X-1) (human) (UniProt O00165). In words: co-IP.
UniProt O00165, sequence (O00165 whole entry): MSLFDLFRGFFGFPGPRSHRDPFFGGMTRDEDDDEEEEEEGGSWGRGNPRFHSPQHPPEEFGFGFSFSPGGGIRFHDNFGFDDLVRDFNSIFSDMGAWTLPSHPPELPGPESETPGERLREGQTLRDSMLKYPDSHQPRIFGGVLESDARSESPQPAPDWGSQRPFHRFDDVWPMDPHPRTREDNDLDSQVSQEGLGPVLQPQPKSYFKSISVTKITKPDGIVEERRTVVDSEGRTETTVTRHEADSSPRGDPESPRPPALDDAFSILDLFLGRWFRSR

As to “VN/1203 PB1-F2 coexpressed as competitor (Figure 8c) (natural protein)”, the percent decrease of HAX-1 bound to PA in the presence of PB1-F2 was 80%.
